According to article PMC12210985:

What was measured:
[1] = test system: MBP-Crp-His6 (Shewanella oneidensis MR-1); assay: MST; settings: EMSA: 2 mM EDTA, 20 mM KCl, 0.5 mM DTT, 4% Ficoll-400, pH 8.0, 2 ug poly(dI-dC), 10 nM probe, 10 uM cAMP for Crp; MST: 1x PBS pH 7.4, 0.05% Tween-20, 25 C
[2] = test system: ArcA-P (Shewanella oneidensis MR-1); assay: MST; settings: phosphorylated ArcA; EMSA: 2 mM EDTA, 20 mM KCl, 0.5 mM DTT, 4% Ficoll-400, pH 8.0, 2 ug poly(dI-dC), 10 nM probe, 10 uM cAMP for Crp; MST: 1x PBS pH 7.4, 0.05% Tween-20, 25 C
[3] = target: T1, MBP-Crp-His6 (Shewanella oneidensis MR-1) (UniProt Q8EJ49); assay: MST; settings: EMSA: 2 mM EDTA, 20 mM KCl, 0.5 mM DTT, 4% Ficoll-400, pH 8.0, 2 ug poly(dI-dC), 10 nM probe, 10 uM cAMP for Crp; MST: 1x PBS pH 7.4, 0.05% Tween-20, 25 C
T1 sequence: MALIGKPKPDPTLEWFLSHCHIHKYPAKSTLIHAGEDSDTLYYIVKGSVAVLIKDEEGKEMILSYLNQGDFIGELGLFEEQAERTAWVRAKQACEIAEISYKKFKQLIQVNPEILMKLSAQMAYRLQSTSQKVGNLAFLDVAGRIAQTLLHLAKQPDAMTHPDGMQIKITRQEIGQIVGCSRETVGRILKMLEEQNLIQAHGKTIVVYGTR

[4] = target: T2, ArcA-P (Shewanella oneidensis MR-1) (UniProt Q8EAB9); assay: MST; settings: EMSA: 2 mM EDTA, 20 mM KCl, 0.5 mM DTT, 4% Ficoll-400, pH 8.0, 2 ug poly(dI-dC), 10 nM probe, 10 uM cAMP for Crp; MST: 1x PBS pH 7.4, 0.05% Tween-20, 25 C
T2 sequence: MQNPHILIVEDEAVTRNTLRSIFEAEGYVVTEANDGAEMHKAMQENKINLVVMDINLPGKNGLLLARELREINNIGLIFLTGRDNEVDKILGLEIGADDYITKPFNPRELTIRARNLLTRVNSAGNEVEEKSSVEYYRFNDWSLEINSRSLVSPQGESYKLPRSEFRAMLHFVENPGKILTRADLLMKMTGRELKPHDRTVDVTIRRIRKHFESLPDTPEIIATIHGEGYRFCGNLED

[5] = target: T3, MBP-Crp (Shewanella oneidensis MR-1) (UniProt Q8EJ49); assay: EMSA; settings: EMSA: 2 mM EDTA, 20 mM KCl, 0.5 mM DTT, 4% Ficoll-400, pH 8.0, 2 ug poly(dI-dC), 10 nM probe, 10 uM cAMP for Crp; MST: 1x PBS pH 7.4, 0.05% Tween-20, 25 C
T3 sequence: T1 sequence

[6] = target: T2, ArcA-P (Shewanella oneidensis MR-1); assay: EMSA; settings: EMSA: 2 mM EDTA, 20 mM KCl, 0.5 mM DTT, 4% Ficoll-400, pH 8.0, 2 ug poly(dI-dC), 10 nM probe, 10 uM cAMP for Crp; MST: 1x PBS pH 7.4, 0.05% Tween-20, 25 C

Substance | Kd [1] [nM] | Kd [2] [nM] | binding [3] | binding [4] | binding [5] | binding [6]
nqr1 promoter probe (PnqrA1) | 120 | 560 |  |  |  | 
nqr2 promoter probe (PnqrA2) | 2020 | 680 |  |  |  | 
AATAACAACCTCAACAAACTCATGTAAATGGCTAAGTTATACCACGGAACAGATAAGAGATAACTACTTTAGTCTAACTAAACAGGCAATTTAGCATTAAAGATATTTCAGAAACAATAAACCACACGATAAAATTTGAGCAGCAAAAAGGGGTAGTGTTCATAATTCTGTGTCATTTCAGTAAAATATTCAAAAACAGGAATGACAC (double strand) [ndh promoter probe (Pndh)] |  |  | binds | binds | binds | binds
